In the DeepSol protein solubility set:

Test: soluble on expression in E. coli; label from the status in PepcDB or PDB records

Row | Sequence | soluble on expression in E. coli
1 | MEVDGASDDEQEQIIRKLVKKPEFLSDEEDDSVEDQVVWECDVVVCNSTPNTEMFSVSYPSSKRDAWDAKRFPIARYKKNVRLLEMRFMTDTQLGSYDKKKAELMYMDGDVPKKGHGIDALRANDEIYEGRAFIHDHPIVNAIGFFKNGEFFIHPLTGAFEMHRSIQGLNKKKKSDGKSGKSDEDSSGEEEDVKPSSAAVRVKFSRPETERQKKRREASALHREKKIASDMWIPMKVHLKDGDPVAEKIDGISQNGLLLDDPEASRMSIRALVNRAIICGVKEELVIESGKEHMLSKQRIDDLPDPNLQLKAHMVKSHVMKTSEMRRLIDPSAMSTDKMIAKLKECASLVQGVWVLDSNLMFKNLAPAHSNTAGKTDLYRAELWRNARDLALCLIDGGHRVTRLTLMTCFKLSERDSDEILSTFGVKCEATRSWRLRVERDAQFLEDPAMKKHVVEQKAKWVQKFNELEKSLQESPAKSPKKK | not soluble
2 | KGPNLTEISKKITESNAVVLAVKEVETLLTSIDELAKAIGKKIKSDVSLDNEADHNGSLMSGAYLISTLITKKISAIKDSGELKAEIEKAKKCSEEFTAKLKGEHTDLGKEGVTDDNAKKAILKTNNDKTKGADELEKLFESVKNLSKAAKEMLTNSVKELTSP | soluble
3 | MTAGGERVTERGTGSDPVDLFIIGGGINGCGIARDAAGRGLSVTLAEMGDLAQATSSASTKLFHGGLRYLEYFEFRLVREALEERETLLVAMPHISWPMRFVLPWQPEMRFAGDTPTARLLGRLMPWARGRRPAWLIRLALETYDRLGGRKILPPARSVDLTRDPAGRALQPRFTKGWEYSDCWVEDSRLVVLNARDAEIRGATILTRTKVVGAERRGDLWHVTTEGARGRQVHRARALVNAGGPWVARIIRETLALPTTEGVRLVRGSHIVTKRLFDHDRCYFFQGTDGRIIFAIPYETDFTLIGTTDQDHRGAPDEARCTPEEQDYLCTFASDYFRKPVTREDIVWTYSGVRPLHDDGARSATAATRDYVLSLDSRGAPLLNVFGGKITTYRRLAESAMAKLAGHFPQARGAWTARVPLPGGDFPWDGAPALAEGLRRDYPFLTERWAMRLVRAYGTDARNLLGPARSALDLGRDFGATLTEAEVRWLMDREYAERAEDVVWRRSKLGLRLTPEEIAALDGWMKDAGGAMEARADTGLEHHHHHH | soluble
4 | MAGTGLLALRTLPGPSWVRGSGPSVLSRLQDAAVVRPGFLSTAEEETLSRELEPELRRRRYEYDHWDAAIHGFRETEKSRWSEASRAILQRVQAAAFGPGQTLLSSVHVLDLEARGYIKPHVDSIKFCGATIAGLSLLSPSVMRLVHTQEPGEWLELLLEPGSLYILRGSARYDFSHEILRDEESFFGERRIPRGRRISVICRSLPEGMGPGESGQPPPACLEHHHHHH | soluble
5 | MTNPGDGAAGAADRATLDHWRPRLAAIAAAAGQDDAAHDLGHLRRVWDAARAMLQAHPEADALVVLAASYLHDLVNLPKNHPERHLASRQAAAAARERLARAGFPAARLDAVAHAIEAHSFSAGIAPRTIEARIVQDADRLDALGPVGLVRMFHVGGSLGRALAHPSDPLAAQRALDDSRYTLDHIEAKLARLPHGMQTEAGRRLGEQRLAWLRDFRAAFSAQWGGGQLRLEHHHHHH | not soluble
6 | MGSDKIHHHHHHMSDSVSIAKYMHRDCLHCPAPLVGTSFKPCHFADIVDNGLQDGFFEVHAENYMGKGGPPHRALSALRETYPVSVHGVCLSIGGPSPLDAHHLARFRDVVARYEPVLVSEHLAWSSHGGAFYNDLLPLPYTKATLDRVCAHVDQIQEAIARPLLLENPSTYVGFASSTMSETEFIAAVAGRTGCGLLLDINNAFVSATNHGCSAADYLADFPLEQVGEIHLAGHSEQRDDEDEPLLIDSHDRPIAGPVWALYASVIARTGPVPTLVEWDSQLPDWLVLRAQALEARRIMDAAVASPVEVADHAL | not soluble
7 | MGSDKIHHHHHHMIKICSVAFLSLLLSASSLFAQTKTFAGADYSQGIVFVMENNQMVWKHKAPDSNDLWILPNGNILFTTGHGVLEMTRQNDTIFHYESKSPVFACQRLKNGNTFVGECVTGRMLEISPKGKIVKETCILPKGVKDGGFAFMRNARRLDNGHFLVAHYGDQCVKEYDANGKVVWKLDVPGGPHSLTRLPNGHTLIAVADKDQNPRLIEVTPEGKTIWEISNADIPGKPLKFLGGFQYFSDGRFLITNWTGHVNPKEKVHLLLVDRQKNVLYSLENTPELQTMSSVYSTDKPAGVASYH | not soluble
8 | AEQDMYLLRQSFDKYKTVSAGVPWFSALFGRDSLITASQTLMLNPEIAKETLMLLAAYQGKHEDEWREEAPGKILHELRLGEMARCQEIPHTPYYGTVDATPLWLMLYSEYYSWTHDRETLEQLWPHALAAMDWIDRNMQPSGYLTYHRKSKRGLDNQGWKDSGDCIVDRKGDLANGSIALSEVQAYVYAAKTRLAEIARMKKRLDLFERWQEEARSLKERFNQDFWIEDQDFCALALDGAGKQVDSITSNPGHCLLLGIFTPERAYSVAERLRAPDMFNGWGIRTLSSLSPAYNPMGYHIGSVWPHDNSLIAMGLRSLGLIDQALEIFQGLLDMTSQQPYQRPPELFCGYERNGDRSPVQYPVACTPQAWATGSIFQ | not soluble
9 | MNSMEHLLKQAIKLRKEKKYAQSKEILIGLTNFTRDAEVLYQCAWIHDVMGLETEAMPYYEQAIANGLEGESLCGAYIGLGSTYRCIGEYDKAITVLETGLQQFPGNDVMKVFLSLAKFNVNDHESAMKLLLETVVKLEHHHHHH | soluble
10 | MGKDLRGKELGVGLYQRKDKRYSARYTNQYGKRMEFYDFKLSVVKKWLNDARYEDEHGLSGTGEKVTVTEWFEKWIKLYKEGVVKDNTVKNYKSRFENNIKPAIGNLQLNKVKKIQLQTILNNMYEEGYAFGTMVLAQITIHALFDGAVQSEILAKNPANGLKCKQRDVKDSRVLTREEQKVFLEYSRGTMYYNAYALLLQTGLRPGEVGGLKWEDIDFDKRELHITRTLLQDKAKGGFYFGSPKNKKSIRTVPLTDTAIQLLKDQRICNFKLRQRSDNWQKNKEFDNLIFCTINGNPVGQSTFRMMMLRVITRINNDRRAEAEINNTTYVEFEPAHPHTLRHTFATRCIEDGMKPNVLQKILGHASITVTMDLYVHETHEEKHKEIRKLGNVEEIGVKLA | not soluble
11 | MRLALFDLDNTLLGGDSDHAWGDYLYQRGILDAATYKSRNDEFYQDYLAGTLNMTDYLNFTLEILGNTDMAQLQEWHREFMRDCIEPIMLPKALELIAKHREAGDKLVVITATNRFVTAPIVARLGIETLLATECEMVDGRYTGRTTGVPCFREGKVTRLNQWLEDNAFSLEDSYFYSDSMNDLPLLEQVANPVAVDPDARLRAEAEQRGWPVITLRS | not soluble
12 | MAHHHHHHMLECNTNSALMEAHFGVVHADQLVPRALSSHAAAAQLSGASKPDKTPTPSLPPGPFIVMGLYGRNVLVLIADGEGQTAVQIHVTRGVAEVAETFRKVAGTPLPPPALPLEPLSVPASPPESTMVAEAAAASRLVANDEVSQERPQAPETERREDQAGPVPATVTCIVAEETDAFMAPAADIAAAAAAEAQLCKDKAAGMRGVEGVCKEVGTATPVADEERHGGPPPTKEVILTDLHKAGETAAHACSSVVVEISQGVSISAASAPRTWRWSSTTSSSASSSSFDSHASQRLRQQQQQSRLEQIGEEQAHRSGPSTGRASAPSTPTDKVVEEVAEAWPTYGAQLLESAEEVTVVPAVTPATDDAPPLMTLPAAEHAMTSQNGEGVFQAEAAIGVVEAANTKTPGEKDVHYHDDGVVSADASLHGQSLLQLPEKDLSAPEGESEKHLQLGSSLAVQFFADHTPSLLPASSSMPRPSQQQHTGDAQEASLGTEVSFDEDGVDAHRLPATLESDCEERVQHVSGADADDVAGPVIAFQASSLLASVEQRGWANQAPPVRHVAIPAGEEVAVTTAMARSATAFTPSYSPPPASPADLRAAPRVWGAQGTSYPTSGPSPCAAAVGLQHHSAATPFTNFLKAYAVYVLGTHGAASGGESKQLRNGTAPHMNECAAGAGEASRGVAELASILDFYREQPLARIMEATAIQRRCRAAWNEVIASTPASAAAQVGSDVEVCKLKASASTTVFTELCVDELVSLLAIVHYPSPRQDG | not soluble
13 | MGSDKIHHHHHHMKELVNILDFLPEELGEKIKPMFRVKQIYQWIYQKYANNFSDMSSLPKDLRLELARNFHFSPVKCVKNEQSKDGSIKYLFELIDGLRVESVLLPMKEEKIDAEGKRISHARYTICVSSQVGCKSGCSFCLTAKGGLKRNLSAGEIVGQILWIKKQNNIPYERRVNIVYMGMGEPLDNLKNVSKAVKILAQNEGLAISPRRQTISTSGLAKQIKELGQMNLGVLLAISLHAVNDELRTELMPINKAYNIAAIMDAVREFPIDQRKRVMFEYLLIDGINDKLEHAKELVKLLNGIKAKVNLILFNPHEGSLYKRPSLENAIKFQDLLSNKGVTCTIRESKGLDISAACGQLKERAKEQ | not soluble
14 | MLAGHLFAGVGEDVRLFKGITMTYGHNIELGDNAVVHDGVHLDDRGELVVGARASVSNGAHLYTHDHDVVDQTDVTNYRTEIGADARVTQGALVRAGVRVGENALVGSRSVVQGDVPAHHIAVGSPAESVRVKPGWLEHHHHHH | not soluble
15 | MICARIRPLISSPLAFTISTTKHSRINLRLLPRRSFSVMSSSTPQSQIIEHIVLFKTKDDADSTKITSMINNLNALAYLDQVLHISTSPLHRISSATAFTHVLHSRYESKEDLASYAAHPDHVRVVKESVLPICDDIMAVDWIADRIPGTVAPLPGSVAKLTLLKLKEDVADEAKSEITGVIKGLSEKFPGIDQITVGENFSPARAKGFSIASIAYFKDLSEMEAVDAQKELVNSQKDKVRDYVDSTIVVEFVVPSSSQSSSL | soluble
16 | MKEIKFLHIADLHLDSPFIGLSTLPQPLFSAVQESTFQSLERIITIAIKEAVEFVLIAGDIYDSEDQSVRAQARFSKEMKRLEQAGIKAFIIHGNHDFIEKHKEKLQLPGNVHVFSEQVEMAAMETKNGAIVHIYGFSYGERHIRASRVNEYNKQGEADFHIGLLHGSELSSSEDHDVYAPFRIQEITKKGFDYWALGHIHKRQLLAESPSVYYPGNIQGRNRKESGEKGASIVTLSASNTTIDFIATSPIIWEEVIITLPENSEINTFYREITKLLATYQGQSNSFFLHVIVQMANKQKINTTDWLQMLQEETDLTGSTFIWVHKLTIELTNQSDLKNWHEQHLASKEITQAFEKLQDESAFYQTVEALYFESGVSRYLDDLSEEDRQLMLDAALTELGTVLKEVEGDEK | not soluble
17 | MSQEVEETLKRIQSHKGVVGTIVVNNEGIPVKSTLDNTTTVQYAGLMSQLADKARSVVRDLDPSNDMTFLRVRSKKHEIMVAPDKDFILIVIQNPTD | soluble
18 | VFADKLDITVDQKKIILPYWLSRPVSYGAVIIVSGGETAQWSLLLEQFAKGLARNGWSVVLLNCTKNNSIPWINQLPEVISTLRQNNNKRIVLVHYGDQLNLALEYFSKPQSKMINGLVMLSAYDLNRNLQKVPRLRFPLFDIVGQFDYDMVRQQRKSREEKFKENSYLAIDIPGATHDYQYSQQLLLAFVHGWM | not soluble
19 | MGSDKIHHHHHHMKDEVLIYSWVGEENIGDELILKSIVRMIEKIDDRLKVNVMGTKPKVINKIHNHLGLNRISTYINWTLKSILRAILKHNIFKAILNILCSNKLIIASGGALSDWNPSSTKTIFFLIDLFYFMNRPICMMGVGAGPILHEKSKKRFYNKLKKLEVITVRDEESYELLKSIGLKNVILTSDSVFNICSIIQNKYPEKDVTEKKISFVLAKLFKDNTKELKEYKEEIIKTINRLKKENWKIKLVPFHYSEDIGFLKSINQKCNVEILNSHDMYDTIGELNNENIIVGMRYHSVIMSLVLGKKVIPLIYHPKVYSVARRFEILDIAENVGNGGNWIGSNISSERLLKNIEKLYKSDENTAKNRGKVLRIVKQNDLNNEILARFLRHSNVLEVVSYNVQRH | not soluble
